Laboratory results as given in article PMC13570301.

How the values were obtained:
[1] = target: UBE2D2 (1–147), from the plasmid pHis//2 Hs UBE2D2 (1–147) (human) (UniProt P62837); test: BLI; settings: enzyme
[2] = target: CHIP Y230Cfs∗9, recombinant, C-terminal His tag (human) (UniProt Q9UNE7); test: mass photometry; Refeyn OneMP; CHIP at 50 nM final (a subset also at 20 nM and 100 nM) in 20 mM HEPES pH 8.0, 200 mM NaCl; self-association, oligomeric states by mass

CHIP Y230Cfs∗9, recombinant, C-terminal His tag, sequence (Q9UNE7 whole entry): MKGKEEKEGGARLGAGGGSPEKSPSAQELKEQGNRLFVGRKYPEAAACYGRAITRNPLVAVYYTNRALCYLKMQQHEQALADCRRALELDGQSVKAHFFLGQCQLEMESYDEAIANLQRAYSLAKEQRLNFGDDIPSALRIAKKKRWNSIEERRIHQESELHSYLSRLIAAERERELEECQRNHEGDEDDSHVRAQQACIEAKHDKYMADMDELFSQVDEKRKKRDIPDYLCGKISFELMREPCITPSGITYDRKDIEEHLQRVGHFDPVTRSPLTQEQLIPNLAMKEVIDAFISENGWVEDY
CHIP L275Dfs∗16, recombinant, C-terminal His tag, sequence (Q9UNE7 whole entry): as above
UBE2D2 (1–147), from the plasmid pHis//2 Hs UBE2D2 (1–147) (human), sequence (P62837 whole entry): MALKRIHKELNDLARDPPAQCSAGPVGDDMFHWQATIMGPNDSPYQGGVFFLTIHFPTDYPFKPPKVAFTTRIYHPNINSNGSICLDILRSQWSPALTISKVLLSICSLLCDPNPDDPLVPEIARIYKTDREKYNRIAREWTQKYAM

Kd [1]	percent of the protein as dimer [2]	stoichiometry N [2]	Substance
308 µM	–	–	CHIP L275Dfs∗16, recombinant, C-terminal His tag (from UniProt Q9UNE7-1 1-303)
–	80%	2	CHIP Y230Cfs∗9, recombinant, C-terminal His tag (from UniProt Q9UNE7-1 1-303) (enzyme)
